In patent publication US20160368995A1 (University of California, published 2016):

Experiments:
Assay in all cases: binding and/or signaling studies
CCR2 = biological target: T1, CCR2 (human, UniProt P41597-2 1-360)
T1 sequence: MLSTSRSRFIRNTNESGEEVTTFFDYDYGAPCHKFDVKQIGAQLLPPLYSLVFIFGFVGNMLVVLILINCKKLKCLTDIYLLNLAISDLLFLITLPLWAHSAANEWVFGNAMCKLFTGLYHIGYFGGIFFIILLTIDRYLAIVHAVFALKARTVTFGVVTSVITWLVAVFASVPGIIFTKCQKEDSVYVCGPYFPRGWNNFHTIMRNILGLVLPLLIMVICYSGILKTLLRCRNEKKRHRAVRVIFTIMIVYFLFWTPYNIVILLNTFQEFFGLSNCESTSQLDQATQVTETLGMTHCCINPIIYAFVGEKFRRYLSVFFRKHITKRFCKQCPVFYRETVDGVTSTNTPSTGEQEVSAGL
Protocol: (§1) Radioligand displacement studies of various chemotaxis receptors were carried out. For the radioligand binding assay, membranes from HEK293T cells transiently expressing the respective chemokine receptors were incubated with ˜[…] ¹²⁵I-chemokine and increasing concentrations of chemokine (control) or CXCL17. Cells were incubated for 3 h at 4° C. and washed twice with binding buffer containing 0.5 M NaCl. After harvesting the samples with lysis buffer, the remaining cell-bound radioactivity was counted.

CXCR3 = biological target: T2, CXCR3 (UniProt P49682 1-368, limits assumed)
T2 construct: whole, on cells
T2 sequence (looked up): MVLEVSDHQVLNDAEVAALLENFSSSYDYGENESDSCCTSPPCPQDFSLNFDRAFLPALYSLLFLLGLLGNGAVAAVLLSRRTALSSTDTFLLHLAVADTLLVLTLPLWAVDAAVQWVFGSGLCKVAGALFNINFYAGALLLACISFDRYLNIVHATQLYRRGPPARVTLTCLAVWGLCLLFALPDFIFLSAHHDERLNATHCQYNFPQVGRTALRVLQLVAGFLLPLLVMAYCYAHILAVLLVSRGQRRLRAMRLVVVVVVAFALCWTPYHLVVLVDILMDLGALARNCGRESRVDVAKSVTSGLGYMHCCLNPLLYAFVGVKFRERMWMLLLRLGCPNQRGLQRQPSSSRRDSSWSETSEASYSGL
Protocol: as §1

CXCR4 = biological target: T3, CXCR4 (human, UniProt P61073-2 1-356)
T3 construct: The construct used is not described
Protocol: as §1

CXCR7 = biological target: T4, CXCR7 (human, UniProt P25106 1-362)
T4 construct: Tested on CXCR7 expressing cells
Protocol: as §1

CCX-CKR = biological target: T5, CCX-CKR (UniProt Q9NPB9 1-350, limits assumed)
T5 construct: whole, on cells
T5 sequence (looked up): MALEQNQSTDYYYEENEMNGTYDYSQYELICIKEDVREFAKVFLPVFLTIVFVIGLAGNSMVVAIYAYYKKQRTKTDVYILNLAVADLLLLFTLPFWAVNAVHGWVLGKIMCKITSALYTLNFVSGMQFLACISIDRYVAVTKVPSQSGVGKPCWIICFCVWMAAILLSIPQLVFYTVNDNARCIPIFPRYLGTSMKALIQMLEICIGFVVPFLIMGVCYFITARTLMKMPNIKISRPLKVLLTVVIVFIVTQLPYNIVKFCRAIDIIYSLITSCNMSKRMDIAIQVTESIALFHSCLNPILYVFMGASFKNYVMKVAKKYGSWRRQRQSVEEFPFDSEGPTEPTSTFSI
Protocol: as §1

Measured: binding result

T4 sequence (P25106 whole entry): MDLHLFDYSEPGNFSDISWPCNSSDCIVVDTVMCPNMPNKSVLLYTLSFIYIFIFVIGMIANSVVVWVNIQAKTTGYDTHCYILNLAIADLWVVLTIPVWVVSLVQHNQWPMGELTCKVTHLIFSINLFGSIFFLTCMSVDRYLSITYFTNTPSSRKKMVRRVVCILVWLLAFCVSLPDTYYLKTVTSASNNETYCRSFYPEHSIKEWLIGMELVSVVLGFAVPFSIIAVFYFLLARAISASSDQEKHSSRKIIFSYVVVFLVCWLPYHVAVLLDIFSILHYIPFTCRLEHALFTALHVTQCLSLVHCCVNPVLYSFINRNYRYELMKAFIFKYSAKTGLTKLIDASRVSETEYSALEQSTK
T3 sequence (P61073 other isoform, or with tags, fused parts or gaps): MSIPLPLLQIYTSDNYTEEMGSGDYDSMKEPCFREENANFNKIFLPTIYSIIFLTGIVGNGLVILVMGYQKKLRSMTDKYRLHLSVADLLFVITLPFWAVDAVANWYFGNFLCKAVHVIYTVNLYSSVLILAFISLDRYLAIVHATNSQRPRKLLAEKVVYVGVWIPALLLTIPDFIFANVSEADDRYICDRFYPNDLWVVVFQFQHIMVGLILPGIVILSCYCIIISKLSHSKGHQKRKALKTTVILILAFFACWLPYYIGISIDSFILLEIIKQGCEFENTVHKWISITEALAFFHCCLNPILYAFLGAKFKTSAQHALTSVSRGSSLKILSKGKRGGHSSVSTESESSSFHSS

B1: recombinant human CXCL17 (chemokine (C-X-C motif) ligand 17) (ligand)
chain: SSLNPGVARGHRDRGQASRRWLQEGGQECECKDWFLRAPRRKFMTVSGLPKKQCPCDHFKGNVKKTRHQRHHRKPNKHSRACQQFLKQCQLRSFALPL
notes: Bought recombinant protein (R&D Systems); also called human recombinant CXCL17
no binding: CCR2 | CXCR3 | CXCR4 | CXCR7 | CCX-CKR
